Data as given in US20230331840A1 (FAPON BIOTHERAPY, published 2023).

B1: CD22 antibody FC2-117 (antibody, IgG1, V domains shown)
VH: DVQLQESGPGLVKPSQSLSLTCSVTGYSITSGYYWNWIRQFPGNKLEWMGYISYDGSNNYNPSLKNRISITRDTSKNQFFLKLNSVTTEDTATYYCTKGGYGYYFDYWGQGTTLTVSS
VL: DIQMTQSPASLSASVGETVTITCRASGNIHNYLAWYQQKQGKSPQLLVYNAKTLADGVPSRFSGSGSGTQYSLKINSLQPEDFGSYYCQHFWSTPPTFGGGTKLEIKR
notes: Mouse hybridoma monoclonal antibody
B2: CD22 antibody FC2-201 (antibody, IgG2b, V domains shown)
VH: KVQLQQSGAGLVKPGASVKLSCKASGYTFTDSILHWLMQRSGQGLEWIGWFYPGSGSIKYNEKFKDKATLTADKSSSTVYMELSRLTSEDSAFYFCARHEDGYDGFAYWGQGTLVTVSA
VL: ENVLTQSPAIMSASLGEKVTMSCRASSSVNYIFWYQQKSDASPKLWIYYTSNLAPGVPARFSGSGSGNSYSLTISSMEGEDAATYYCQQFTSSPFTFGSGTKLEIKR
notes: as for B1

Biological target: T1, Human CD22 extracellular segment conjugated His label (human, UniProt P20273 20-687)
T1 construct: extracellular domain; Bought recombinant protein; also called h CD22-His; hCD22-His; not shown: His label
Experiment: ELISA, h CD22-His coated at 2 µg/ml, antibody in 3-fold dilutions
Source text: M971 was a 7 epitope humanized CD22 antibody. The specific sequence and information can be found publicly. The antibody was synthesized by Shenzhen FeipengBiological therapy Co., LTD.

Binder | binding result
B1 | binds
B2 | binds
